This note sets out measurements from patent publication US11965039B2, “Compstatin analogues and their medical uses” (priority 2018, dated 2024).

Positions of bridges follow the written chain, without caps; N, C: chain ends. Non-standard residues stand in square brackets, D forms with d. Trp(1-Me) = Cn1cc(C[C@H](N)C(=O)O)c2ccccc21; Sar = CNCC(=O)O Bounds are passed on as bounds.

In assay [1] the target is T1, Human C3 (Complement tech cat #A113c) (human, UniProt P01024 23-1663). As to the kind of experiment: cell-based or functional assay.
T1 sequence (P01024 23-1663 limits assumed): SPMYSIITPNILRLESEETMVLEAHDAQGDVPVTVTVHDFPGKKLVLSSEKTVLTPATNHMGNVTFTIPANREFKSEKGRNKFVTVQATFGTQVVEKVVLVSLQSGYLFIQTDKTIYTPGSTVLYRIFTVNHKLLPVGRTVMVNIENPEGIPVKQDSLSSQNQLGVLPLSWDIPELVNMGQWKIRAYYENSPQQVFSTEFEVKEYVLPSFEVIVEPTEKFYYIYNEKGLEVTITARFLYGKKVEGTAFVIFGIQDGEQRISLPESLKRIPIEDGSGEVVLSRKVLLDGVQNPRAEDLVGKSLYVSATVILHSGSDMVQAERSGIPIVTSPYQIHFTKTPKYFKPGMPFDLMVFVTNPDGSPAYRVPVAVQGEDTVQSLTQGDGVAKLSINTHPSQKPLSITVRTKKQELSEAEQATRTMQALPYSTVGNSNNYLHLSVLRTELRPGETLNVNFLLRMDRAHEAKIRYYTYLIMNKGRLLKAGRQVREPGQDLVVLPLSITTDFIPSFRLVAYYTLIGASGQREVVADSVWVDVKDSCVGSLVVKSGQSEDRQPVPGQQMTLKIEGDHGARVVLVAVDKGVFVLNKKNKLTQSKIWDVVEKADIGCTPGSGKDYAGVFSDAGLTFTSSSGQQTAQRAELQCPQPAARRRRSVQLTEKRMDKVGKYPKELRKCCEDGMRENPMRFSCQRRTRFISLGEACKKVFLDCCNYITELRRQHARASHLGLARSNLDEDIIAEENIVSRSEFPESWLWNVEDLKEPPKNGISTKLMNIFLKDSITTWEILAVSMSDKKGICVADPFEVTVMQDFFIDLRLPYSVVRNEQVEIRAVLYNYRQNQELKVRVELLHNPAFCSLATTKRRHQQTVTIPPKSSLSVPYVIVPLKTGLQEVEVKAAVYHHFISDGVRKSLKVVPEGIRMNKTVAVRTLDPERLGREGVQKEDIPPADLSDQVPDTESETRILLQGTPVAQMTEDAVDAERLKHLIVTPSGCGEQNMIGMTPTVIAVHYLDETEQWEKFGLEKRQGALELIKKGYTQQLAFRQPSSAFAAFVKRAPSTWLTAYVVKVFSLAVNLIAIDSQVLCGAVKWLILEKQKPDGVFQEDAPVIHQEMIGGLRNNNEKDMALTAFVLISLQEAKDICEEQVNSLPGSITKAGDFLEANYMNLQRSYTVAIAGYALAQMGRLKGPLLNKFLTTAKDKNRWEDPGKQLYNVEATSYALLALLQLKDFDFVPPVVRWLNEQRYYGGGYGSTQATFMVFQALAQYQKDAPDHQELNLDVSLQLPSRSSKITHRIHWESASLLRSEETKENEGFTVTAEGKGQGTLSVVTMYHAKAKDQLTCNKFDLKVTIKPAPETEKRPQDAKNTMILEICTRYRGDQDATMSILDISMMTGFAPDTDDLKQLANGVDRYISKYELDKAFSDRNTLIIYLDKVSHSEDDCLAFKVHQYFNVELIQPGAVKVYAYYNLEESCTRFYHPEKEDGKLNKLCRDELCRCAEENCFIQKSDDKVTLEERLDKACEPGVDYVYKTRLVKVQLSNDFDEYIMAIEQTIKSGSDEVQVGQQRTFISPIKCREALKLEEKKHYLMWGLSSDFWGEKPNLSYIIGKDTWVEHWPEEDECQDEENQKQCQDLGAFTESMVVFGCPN
The target in assay [2] is T1, Human C3 (Complement tech cat #A113c). In words: SPR (Biacore T200), human C3 immobilised, peptide injected, 1:1 fit. An outline of the steps: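 Human C3 amine-coupled on CM5 chips to about 3000 RU. Multi-cycle runs on Biacore T200 at 25° C: peptides at 6-8 rising concentrations, 60-120 s at 30 µL/min in 10 mM Tris pH 7.4, 150 mM NaCl, 0.05% Tween20, dissociation up to 10 min; 3 M MgCl2 regeneration. Kd derived.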

The target is the same in assay [3]. In words: cell-based or functional assay. The source holds these as a separate data set.

B1: Compound 81 (peptide)
peptide: Ac-SE[Sar]CI[Trp(1-Me)]QDWGEHRC[Sar]EA-NH2
modifications: disulfide 4-14
SMILES: CC[C@H](C)[C@@H]1NC(=O)[C@@H](NC(=O)CN(C)C(=O)[C@H](CCC(=O)O)NC(=O)[C@H](CO)NC(C)=O)CSSC[C@@H](C(=O)N(C)CC(=O)N[C@@H](CCC(=O)O)C(=O)N[C@@H](C)C(N)=O)NC(=O)[C@H](CCCNC(=N)N)NC(=O)[C@H](Cc2c[nH]cn2)NC(=O)[C@H](CCC(=O)O)NC(=O)CNC(=O)[C@H](Cc2c[nH]c3ccccc23)NC(=O)[C@H](CC(=O)O)NC(=O)[C@H](CCC(N)=O)NC(=O)[C@H](Cc2cn(C)c3ccccc23)NC1=O
As for B1, the “inhibition of hemolysis IC50” value in assay [1] is less than 100 nM. The molecule also returned an equilibrium dissociation constant (Kd) in assay [2] of 9.7 nM.

B2: Compound 82 (peptide)
peptide: Ac-SE[Sar]CI[Trp(1-Me)]QDWGEHRCTEA-NH2
modifications: disulfide 4-14
SMILES: CC[C@H](C)[C@@H]1NC(=O)[C@@H](NC(=O)CN(C)C(=O)[C@H](CCC(=O)O)NC(=O)[C@H](CO)NC(C)=O)CSSC[C@@H](C(=O)N[C@H](C(=O)N[C@@H](CCC(=O)O)C(=O)N[C@@H](C)C(N)=O)[C@@H](C)O)NC(=O)[C@H](CCCNC(=N)N)NC(=O)[C@H](Cc2c[nH]cn2)NC(=O)[C@H](CCC(=O)O)NC(=O)CNC(=O)[C@H](Cc2c[nH]c3ccccc23)NC(=O)[C@H](CC(=O)O)NC(=O)[C@H](CCC(N)=O)NC(=O)[C@H](Cc2cn(C)c3ccccc23)NC1=O
Take B2: the “inhibition of hemolysis IC50” value in assay [1] was less than 100 nM. This molecule also yielded a dissociation constant (Kd) in assay [2] of 5.4 nM.

B3: Compound E (peptide)
peptide: Ac-ICVWQDWGAHSCT-NH2
modifications: disulfide 2-12
SMILES: CC[C@H](C)[C@H](NC(C)=O)C(=O)N[C@H]1CSSC[C@@H](C(=O)N[C@H](C(N)=O)[C@@H](C)O)NC(=O)[C@H](CO)NC(=O)[C@H](Cc2c[nH]cn2)NC(=O)[C@H](C)NC(=O)CNC(=O)[C@H](Cc2c[nH]c3ccccc23)NC(=O)[C@H](CC(=O)O)NC(=O)[C@H](CCC(N)=O)NC(=O)[C@H](Cc2c[nH]c3ccccc23)NC(=O)[C@H](C(C)C)NC1=O
For the molecule B3, the “CP hemolysis IC50” value in assay [3] was greater than 1000 nM.

B4: Compound J (peptide)
peptide: Ac-ICVWQDWGEHRCTEGE-NH2
modifications: disulfide 2-12
SMILES: CC[C@H](C)[C@H](NC(C)=O)C(=O)N[C@H]1CSSC[C@@H](C(=O)N[C@H](C(=O)N[C@@H](CCC(=O)O)C(=O)NCC(=O)N[C@@H](CCC(=O)O)C(N)=O)[C@@H](C)O)NC(=O)[C@H](CCCNC(=N)N)NC(=O)[C@H](Cc2c[nH]cn2)NC(=O)[C@H](CCC(=O)O)NC(=O)CNC(=O)[C@H](Cc2c[nH]c3ccccc23)NC(=O)[C@H](CC(=O)O)NC(=O)[C@H](CCC(N)=O)NC(=O)[C@H](Cc2c[nH]c3ccccc23)NC(=O)[C@H](C(C)C)NC1=O
Take B4: the “CP hemolysis IC50” value in assay [3] came to 240 nM.

B5: Compound 75 (peptide)
peptide: Ac-SEFCI[Trp(1-Me)]QDWGEHRC[Sar]EA-NH2
modifications: disulfide 4-14
SMILES: CC[C@H](C)[C@@H]1NC(=O)[C@@H](NC(=O)[C@H](Cc2ccccc2)NC(=O)[C@H](CCC(=O)O)NC(=O)[C@H](CO)NC(C)=O)CSSC[C@@H](C(=O)N(C)CC(=O)N[C@@H](CCC(=O)O)C(=O)N[C@@H](C)C(N)=O)NC(=O)[C@H](CCCNC(=N)N)NC(=O)[C@H](Cc2c[nH]cn2)NC(=O)[C@H](CCC(=O)O)NC(=O)CNC(=O)[C@H](Cc2c[nH]c3ccccc23)NC(=O)[C@H](CC(=O)O)NC(=O)[C@H](CCC(N)=O)NC(=O)[C@H](Cc2cn(C)c3ccccc23)NC1=O
With B5, the “inhibition of hemolysis IC50” value in assay [1] was less than 100 nM. Besides, the Kd in assay [2] stood at 1.5 nM.

B6: Compound 86 (peptide)
peptide: Ac-SEFCI[Trp(1-Me)]QDWGEHKC[Sar]EA-NH2
modifications: disulfide 4-14
SMILES: CC[C@H](C)[C@@H]1NC(=O)[C@@H](NC(=O)[C@H](Cc2ccccc2)NC(=O)[C@H](CCC(=O)O)NC(=O)[C@H](CO)NC(C)=O)CSSC[C@@H](C(=O)N(C)CC(=O)N[C@@H](CCC(=O)O)C(=O)N[C@@H](C)C(N)=O)NC(=O)[C@H](CCCCN)NC(=O)[C@H](Cc2c[nH]cn2)NC(=O)[C@H](CCC(=O)O)NC(=O)CNC(=O)[C@H](Cc2c[nH]c3ccccc23)NC(=O)[C@H](CC(=O)O)NC(=O)[C@H](CCC(N)=O)NC(=O)[C@H](Cc2cn(C)c3ccccc23)NC1=O
Consider B6, for which, in assay [1], the “inhibition of hemolysis IC50” value is less than 100 nM. This molecule also displayed a Kd in assay [2] of 2.6 nM.

B7: Compound 6 (peptide)
peptide: Ac-ICIWQDWGSHRCT-NH2
modifications: disulfide 2-12
SMILES: CC[C@H](C)[C@H](NC(C)=O)C(=O)N[C@H]1CSSC[C@@H](C(=O)N[C@H](C(N)=O)[C@@H](C)O)NC(=O)[C@H](CCCNC(=N)N)NC(=O)[C@H](Cc2c[nH]cn2)NC(=O)[C@H](CO)NC(=O)CNC(=O)[C@H](Cc2c[nH]c3ccccc23)NC(=O)[C@H](CC(=O)O)NC(=O)[C@H](CCC(N)=O)NC(=O)[C@H](Cc2c[nH]c3ccccc23)NC(=O)[C@H]([C@@H](C)CC)NC1=O
B7: in assay [1], the “inhibition of hemolysis IC50” value is less than 250 nM. Besides, the “CP hemolysis IC50” value in assay [3] was determined as 140 nM.

B8: Compound 85 (peptide)
peptide: Ac-EFCI[Trp(1-Me)]QDWGEHRCES-NH2
modifications: disulfide 3-13
SMILES: CC[C@H](C)[C@@H]1NC(=O)[C@@H](NC(=O)[C@H](Cc2ccccc2)NC(=O)[C@H](CCC(=O)O)NC(C)=O)CSSC[C@@H](C(=O)N[C@@H](CCC(=O)O)C(=O)N[C@@H](CO)C(N)=O)NC(=O)[C@H](CCCNC(=N)N)NC(=O)[C@H](Cc2c[nH]cn2)NC(=O)[C@H](CCC(=O)O)NC(=O)CNC(=O)[C@H](Cc2c[nH]c3ccccc23)NC(=O)[C@H](CC(=O)O)NC(=O)[C@H](CCC(N)=O)NC(=O)[C@H](Cc2cn(C)c3ccccc23)NC1=O
On to B8, for which, in assay [1], the “inhibition of hemolysis IC50” value is less than 100 nM. This molecule also came in with a Kd in assay [2] of 1.3 nM.

B9: Compound 73 (peptide)
peptide: H-[dY]FCI[Trp(1-Me)]QDW[Sar]EHRCTGAES-NH2
modifications: disulfide 3-13
SMILES: CC[C@H](C)[C@@H]1NC(=O)[C@@H](NC(=O)[C@H](Cc2ccccc2)NC(=O)[C@H](N)Cc2ccc(O)cc2)CSSC[C@@H](C(=O)N[C@H](C(=O)NCC(=O)N[C@@H](C)C(=O)N[C@@H](CCC(=O)O)C(=O)N[C@@H](CO)C(N)=O)[C@@H](C)O)NC(=O)[C@H](CCCNC(=N)N)NC(=O)[C@H](Cc2c[nH]cn2)NC(=O)[C@H](CCC(=O)O)NC(=O)CN(C)C(=O)[C@H](Cc2c[nH]c3ccccc23)NC(=O)[C@H](CC(=O)O)NC(=O)[C@H](CCC(N)=O)NC(=O)[C@H](Cc2cn(C)c3ccccc23)NC1=O
Turning to B9, in assay [1], the “inhibition of hemolysis IC50” value was less than 100 nM. For the same molecule, the dissociation constant (Kd) in assay [2] was 0.3 nM.

B10: Compound B (peptide)
peptide: Ac-ICVWQDWGSHRCT-NH2
modifications: disulfide 2-12
SMILES: CC[C@H](C)[C@H](NC(C)=O)C(=O)N[C@H]1CSSC[C@@H](C(=O)N[C@H](C(N)=O)[C@@H](C)O)NC(=O)[C@H](CCCNC(=N)N)NC(=O)[C@H](Cc2c[nH]cn2)NC(=O)[C@H](CO)NC(=O)CNC(=O)[C@H](Cc2c[nH]c3ccccc23)NC(=O)[C@H](CC(=O)O)NC(=O)[C@H](CCC(N)=O)NC(=O)[C@H](Cc2c[nH]c3ccccc23)NC(=O)[C@H](C(C)C)NC1=O
Turning to B10, in assay [3], the “CP hemolysis IC50” value was determined as 360 nM.

B11: Compound H (peptide)
peptide: Ac-EGSAICVWQDWGEHRC[Sar]E-NH2
modifications: disulfide 6-16
SMILES: CC[C@H](C)[C@H](NC(=O)[C@H](C)NC(=O)[C@H](CO)NC(=O)CNC(=O)[C@H](CCC(=O)O)NC(C)=O)C(=O)N[C@H]1CSSC[C@@H](C(=O)N(C)CC(=O)N[C@@H](CCC(=O)O)C(N)=O)NC(=O)[C@H](CCCNC(=N)N)NC(=O)[C@H](Cc2c[nH]cn2)NC(=O)[C@H](CCC(=O)O)NC(=O)CNC(=O)[C@H](Cc2c[nH]c3ccccc23)NC(=O)[C@H](CC(=O)O)NC(=O)[C@H](CCC(N)=O)NC(=O)[C@H](Cc2c[nH]c3ccccc23)NC(=O)[C@H](C(C)C)NC1=O
With B11, in assay [3], the “CP hemolysis IC50” value was determined as 330 nM.

B12: Compound F (peptide)
peptide: Ac-ICVWQDWGEHSCT-NH2
modifications: disulfide 2-12
SMILES: CC[C@H](C)[C@H](NC(C)=O)C(=O)N[C@H]1CSSC[C@@H](C(=O)N[C@H](C(N)=O)[C@@H](C)O)NC(=O)[C@H](CO)NC(=O)[C@H](Cc2c[nH]cn2)NC(=O)[C@H](CCC(=O)O)NC(=O)CNC(=O)[C@H](Cc2c[nH]c3ccccc23)NC(=O)[C@H](CC(=O)O)NC(=O)[C@H](CCC(N)=O)NC(=O)[C@H](Cc2c[nH]c3ccccc23)NC(=O)[C@H](C(C)C)NC1=O
Regarding B12, the “CP hemolysis IC50” value in assay [3] came to 540 nM.

B13: Compound C (peptide)
peptide: Ac-ESSAICVWQDWGEHRCT-NH2
modifications: disulfide 6-16
SMILES: CC[C@H](C)[C@H](NC(=O)[C@H](C)NC(=O)[C@H](CO)NC(=O)[C@H](CO)NC(=O)[C@H](CCC(=O)O)NC(C)=O)C(=O)N[C@H]1CSSC[C@@H](C(=O)N[C@H](C(N)=O)[C@@H](C)O)NC(=O)[C@H](CCCNC(=N)N)NC(=O)[C@H](Cc2c[nH]cn2)NC(=O)[C@H](CCC(=O)O)NC(=O)CNC(=O)[C@H](Cc2c[nH]c3ccccc23)NC(=O)[C@H](CC(=O)O)NC(=O)[C@H](CCC(N)=O)NC(=O)[C@H](Cc2c[nH]c3ccccc23)NC(=O)[C@H](C(C)C)NC1=O
B13: in assay [3], the “CP hemolysis IC50” value worked out at 300 nM.
